Data: the supplement of paper PMC9112550, “Optimization of the antimicrobial peptide Bac7 by deep mutational scanning” (BMC Biology, 2022)

test system: Escherichia coli TOP10; assay: shrunken log2 fold change of peptide-encoding DNA abundance (4.5 h post-induction vs induction); higher = less antimicrobial activity (less host growth inhibition); settings: time post-induction: 4.5 h; library: site-saturation at positions 5, 18, 19, 20
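Also: peptides expressed intracellularly from a pBAD plasmid library in pooled LB shake-flask culture, induced with 0.3% L-arabinose, DNA abundance read by NGS, three biological replicates, DESeq2 with apeglm shrinkage.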

| Sequence | shrunken log2 fold change |
| --- | --- |
| RRIRDRPPRLPRPRPRPHLCPRP | -0.0584 |
| RRIRDRPPRLPRPRPRPINNPRP | -1.21 |
| RRIRDRPPRLPRPRPRPARFPRP | 0.446 |
| RRIRQRPPRLPRPRPRPACNPRP | 0.0438 |
| RRIRERPPRLPRPRPRPMYRPRP | -0.273 |
| RRIRVRPPRLPRPRPRPMVIPRP | 0.0224 |
| RRIRYRPPRLPRPRPRPVRKPRP | 0.195 |
| RRIRYRPPRLPRPRPRPSTQPRP | -0.641 |
| RRIRMRPPRLPRPRPRPANTPRP | -0.0215 |
| RRIRARPPRLPRPRPRPCFRPRP | -0.0247 |
| RRIRERPPRLPRPRPRPFHSPRP | -0.256 |
| RRIRPRPPRLPRPRPRPQGSPRP | 0.0552 |
| RRIRGRPPRLPRPRPRPTGGPRP | 0.887 |
| RRIRSRPPRLPRPRPRPLNMPRP | -0.316 |
| RRIRRRPPRLPRPRPRPSIEPRP | -0.232 |
| RRIRKRPPRLPRPRPRPKGVPRP | 0.286 |
| RRIRTRPPRLPRPRPRPGHIPRP | -0.289 |
| RRIRLRPPRLPRPRPRPCYDPRP | 0.00693 |
| RRIRFRPPRLPRPRPRPFCIPRP | -0.518 |
| RRIRSRPPRLPRPRPRPMNEPRP | -0.457 |
| RRIRHRPPRLPRPRPRPDQLPRP | -0.51 |
| RRIRLRPPRLPRPRPRPLVKPRP | -0.00589 |
| RRIRRRPPRLPRPRPRPEFHPRP | 0.0566 |
| RRIRARPPRLPRPRPRPRDVPRP | 0.261 |
| RRIRNRPPRLPRPRPRPYMQPRP | -0.315 |

| Sequence | shrunken log2 fold change |
| --- | --- |
| RRIRRRPPRLPRPRPRPCFRPRP | -0.00559 |
| RRIRNRPPRLPRPRPRPETDPRP | -0.05 |
| RRIRRRPPRLPRPRPRPAHEPRP | 0.598 |
| RRIRFRPPRLPRPRPRPYQVPRP | -0.153 |
| RRIRERPPRLPRPRPRPDRLPRP | -0.147 |
| RRIRFRPPRLPRPRPRPKDMPRP | -0.0249 |
| RRIRMRPPRLPRPRPRPWASPRP | 0.0142 |
| RRIRNRPPRLPRPRPRPPRYPRP | 0.0834 |
| RRIRWRPPRLPRPRPRPVLAPRP | 0.582 |
| RRIRVRPPRLPRPRPRPYVPPRP | -0.398 |
| RRIRTRPPRLPRPRPRPLLWPRP | 0.223 |
| RRIRVRPPRLPRPRPRPGRWPRP | 0.649 |
| RRIRDRPPRLPRPRPRPPNRPRP | 0.789 |
| RRIRGRPPRLPRPRPRPSMCPRP | 0.37 |
| RRIRMRPPRLPRPRPRPMEVPRP | 0.0214 |
| RRIRFRPPRLPRPRPRPNRCPRP | -0.717 |
| RRIRMRPPRLPRPRPRPTTSPRP | 0.499 |
| RRIRYRPPRLPRPRPRPQDDPRP | -0.0017 |
| RRIRMRPPRLPRPRPRPRCRPRP | 0.619 |
| RRIRIRPPRLPRPRPRPSGRPRP | -0.427 |
| RRIRYRPPRLPRPRPRPLQLPRP | -1.13 |
| RRIRHRPPRLPRPRPRPGYCPRP | -0.507 |
| RRIRPRPPRLPRPRPRPALTPRP | 0.241 |
| RRIRFRPPRLPRPRPRPVIQPRP | -0.414 |
| RRIRRRPPRLPRPRPRPQSKPRP | -0.0754 |

| Sequence | shrunken log2 fold change |
| --- | --- |
| RRIRNRPPRLPRPRPRPSEIPRP | -0.0685 |
| RRIRWRPPRLPRPRPRPNDIPRP | -0.565 |
| RRIRRRPPRLPRPRPRPWGPPRP | 0.0858 |
| RRIRGRPPRLPRPRPRPEWPPRP | 1.13 |
| RRIRSRPPRLPRPRPRPHECPRP | -0.0285 |
| RRIRGRPPRLPRPRPRPGAFPRP | 0.773 |
| RRIRVRPPRLPRPRPRPVQIPRP | -0.0141 |
| RRIRIRPPRLPRPRPRPHIHPRP | -0.811 |
| RRIRTRPPRLPRPRPRPNYIPRP | -0.74 |
| RRIRNRPPRLPRPRPRPLRWPRP | 1.25 |
| RRIRDRPPRLPRPRPRPLVVPRP | 0.102 |
| RRIRIRPPRLPRPRPRPKWQPRP | -0.114 |
| RRIRHRPPRLPRPRPRPLVMPRP | -0.0133 |
| RRIRGRPPRLPRPRPRPACLPRP | 0.792 |
| RRIRERPPRLPRPRPRPRVWPRP | 0.387 |
| RRIRNRPPRLPRPRPRPKTPPRP | 0.228 |
| RRIRQRPPRLPRPRPRPNERPRP | -0.0297 |
| RRIRPRPPRLPRPRPRPKYFPRP | -0.693 |
| RRIRFRPPRLPRPRPRPVKGPRP | -0.178 |
| RRIRIRPPRLPRPRPRPIYTPRP | -0.728 |
| RRIRWRPPRLPRPRPRPVTRPRP | -0.0273 |
| RRIRLRPPRLPRPRPRPTTRPRP | 0.34 |
| RRIRERPPRLPRPRPRPDGPPRP | 0.115 |
| RRIRGRPPRLPRPRPRPYPIPRP | 3.7 |
| RRIRGRPPRLPRPRPRPETKPRP | 0.374 |

| Sequence | shrunken log2 fold change |
| --- | --- |
| RRIRTRPPRLPRPRPRPGIYPRP | -0.279 |
| RRIRRRPPRLPRPRPRPSHNPRP | -0.379 |
| RRIRQRPPRLPRPRPRPVGLPRP | 0.35 |
| RRIRKRPPRLPRPRPRPHRLPRP | 0.164 |
| RRIRVRPPRLPRPRPRPQRRPRP | 0.0241 |
| RRIRLRPPRLPRPRPRPSNFPRP | -0.956 |
| RRIRGRPPRLPRPRPRPLPDPRP | 0.926 |
| RRIRFRPPRLPRPRPRPVCKPRP | -0.139 |
| RRIRRRPPRLPRPRPRPKFCPRP | 0.175 |
| RRIRCRPPRLPRPRPRPRSWPRP | 0.417 |
| RRIRMRPPRLPRPRPRPKDEPRP | 1.75 |
| RRIRHRPPRLPRPRPRPVTVPRP | -0.179 |
| RRIRARPPRLPRPRPRPWEAPRP | 0.221 |
| RRIRYRPPRLPRPRPRPMRIPRP | 0.0121 |
| RRIRFRPPRLPRPRPRPPYLPRP | -0.465 |
| RRIRHRPPRLPRPRPRPFFDPRP | -0.642 |
| RRIRKRPPRLPRPRPRPFWTPRP | 0.0312 |
| RRIRWRPPRLPRPRPRPFEGPRP | -0.0062 |
| RRIRMRPPRLPRPRPRPAMNPRP | -0.00221 |
| RRIRKRPPRLPRPRPRPTEFPRP | 0.00591 |
| RRIRKRPPRLPRPRPRPHMMPRP | 0.217 |
| RRIRERPPRLPRPRPRPLAAPRP | -0.0502 |
| RRIRVRPPRLPRPRPRPWWAPRP | -0.0894 |
| RRIRSRPPRLPRPRPRPFDKPRP | -0.232 |
| RRIRRRPPRLPRPRPRPCKRPRP | 0.0349 |

| Sequence | shrunken log2 fold change |
| --- | --- |
| RRIRHRPPRLPRPRPRPRMFPRP | -0.219 |
| RRIRIRPPRLPRPRPRPGILPRP | -0.128 |
| RRIRLRPPRLPRPRPRPVWQPRP | -0.096 |
| RRIRQRPPRLPRPRPRPATYPRP | -0.287 |
| RRIRCRPPRLPRPRPRPKCHPRP | 0.205 |
| RRIRHRPPRLPRPRPRPPQTPRP | -0.00347 |
| RRIRTRPPRLPRPRPRPLEEPRP | -0.0207 |
| RRIRYRPPRLPRPRPRPMFLPRP | -0.377 |
| RRIRLRPPRLPRPRPRPVGAPRP | 0.349 |
| RRIRVRPPRLPRPRPRPHPCPRP | 0.106 |
| RRIRNRPPRLPRPRPRPQCHPRP | -0.42 |
| RRIRWRPPRLPRPRPRPDKYPRP | -0.126 |
| RRIRSRPPRLPRPRPRPAIWPRP | 0.463 |
| RRIRSRPPRLPRPRPRPPRLPRP | 0.322 |
| RRIRFRPPRLPRPRPRPCGSPRP | 0.06 |
| RRIRARPPRLPRPRPRPTHLPRP | 0.326 |
| RRIRPRPPRLPRPRPRPCRAPRP | 0.0858 |
| RRIRGRPPRLPRPRPRPQIIPRP | 0.203 |
| RRIRGRPPRLPRPRPRPDLQPRP | 1.37 |
| RRIRHRPPRLPRPRPRPFSIPRP | -0.392 |
| RRIRDRPPRLPRPRPRPGKNPRP | -0.543 |
| RRIRFRPPRLPRPRPRPEAIPRP | 0.104 |
| RRIRLRPPRLPRPRPRPCITPRP | -0.275 |
| RRIRQRPPRLPRPRPRPICLPRP | 0.144 |
| RRIRHRPPRLPRPRPRPVAVPRP | -0.0993 |
